Patent US20090081234A1 (published 2009)

Target: recombinant human TNFα (human, UniProt P01375 77-233)
Assay: cell-based or functional assay

recombinant human TNFα, sequence (P01375 77-233 limits assumed): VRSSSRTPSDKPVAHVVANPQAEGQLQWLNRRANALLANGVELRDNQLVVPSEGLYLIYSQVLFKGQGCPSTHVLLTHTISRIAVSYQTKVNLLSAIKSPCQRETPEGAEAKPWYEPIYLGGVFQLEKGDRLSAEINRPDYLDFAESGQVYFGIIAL

B1: TNV196 (antibody, V domains shown)
VH: QVQLVESGGGVVQPGRSLRLSCAASGFTFSSYAMHWVRQAPGKGLEWVAFISYDGSNKKSADSVKGRFTVSRDNSKNTLFLQMNSLRAEDTAVFYCARDRGIGAGGNYYYYGMDVWGQGTTVTVSS
VL: EIVLTQSPATLSLSPGERATLSCRASQSVYSYLAWYQQKPGQAPRLLIYDASNRATGIPARFSGSGSGTDFTLTISSLEPEDFAVYYCQQRSNWPPFTFGPGTKVDIK
neutralizing TNFα bioactivity: 4 fold
